Assay results from a protein production outcome set (Wang et al. 2014).

Test: label from the status in PepcDB records
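Also: failed if final PepcDB status was selected cloned or expressed and not failed if soluble or beyond.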

Sequence | protein production
MTNTHEINALKKYVRATNFLATSQIYLKQNVLHKRPLAHSDIKPRLLGHWGTCPGINFVYANINRLIVKHNRPFIYLVGPGHGFPAVQANLFIEGSLSHFYPETIPYNETGIEDICKKFSAAYGYPSHANPEAPGQILEGGELGYSLSVGWGAVLDNPDLIATVLVGDGESETGPLAASWYANRLVSPATNGAVLPIVHINGYKISGPTRMGRMSHEELDLEFRGLGYHPIIVDSEAEEDVYIQMATAMDTAYSMINDIQTRARKGEDIVK | failed
MTPASAVPAHPCPPGPNALRRRLLQAALSTGVLASIGTAAPAAASAHATSTPSKPMDLYAYVGSRTTRERNARGDGISVFRVDTQTGGLAPVQLVKDLVNPSFLALNPAGDRLYTVHGDLADISAFAVDRASGRLSFINRQSTQGKNPVHLALDPSGRFVVVTNHIGASLAVLPLAADGALGEVTQLVKLDGPIGPHRIEQKQAKPHFNRFDPAGRFVIVPDKGLDRTFAFRFAEGRLTPATPSFVSAREGAGPRHVAFRPDGRVAYVVNELDSTVTTYGYDAGTATLTPLQVLPSLPDTFTGNSRASEIKVDAAGRFVYASNRGHDSIAVFRIDAASGLLRFVAAEPSLGRTPRFFTIAPGGRFLYALNEDSDSIVAFAIDPHTGRLHPTGTRAQSGSPVCMVFSTPAA | failed
MTPDDFDRFWPTFQAIVQARETYAFDPALSFEQARQLWLELPLHTLLAEEDGELLGSYYLKPNAAGPGAHVGNCGYMVCEQARGRGVARLMCEHSQKLARQEGFLALQFNSVVASNEVAVALWHKLGFETVGRLPKAYRHARLGLVDCLVMYKWLAD | failed
MTPEQLMSLRATFRSPRRLLTESLAGLVVALALIPEAIAFSVIAGVDPRIGLFASFTMGVVTAIVGGRPAMISAATGAVALVIAPVMKEHGLDYLIATIILAGVFQIILAVLGVTKLMRFIPRSVMIGFVNALAILVFMSQMPELFDVPWMVYPIVVVGLVIVFGLPRITTAIPAPLVAIVAITLVTVLGNVDVPTVSDKGELPDSLPGFFLPNVPLNLETFQIIAPFALSMALVGLLESLMTAKLVDDITDTRSNKTRVSWGQGAANIVTGFLGGLGGCAVIGQTMINVKGSGARSRLSTFLAGVFLLILVVVLGDVVGMIPMAALVAVMIFVSLITFDWHSIRPSTLKRLPKSETAVMLITVAAVVATHNLAVGVGVGVVTAMVLFARRVAHFATVERTELELNGERVATYTVDGELFFASSNDLYTQFDYAKDSSDGIDRVIIDLHGSHIWDASTVAVLDSVTEKYRNHGREVEFIGLNEASVRMRERLAGKLNS | failed
MTPFENLSELPAQNTRFNGRAGMGTWLVNRLLNNIERGRLRVTLPGGGTIEKSGHQEGSEAILMLHNWRAIRRVLVNGDIGFAEGFIENDWSTPDLTALIRFAAQNQDAFARSTRGSLPMRLINRMAHALNANTRRGSRRNIEAHYDLGNEFYRQWLDPSMLYSSAIFDDTTPTLEAAQRKKLERIAEKLQLTGNNSVLEIGCGWGALAIHLATQQNADVTGITLSPSQLRWAENAAEKESKAGRIDLRLQDYRDVQGQFDNIVSVEMFEAVGESYWPSYFEMLKRCLKPGGRAVLQIISIDESRFDTYRRKADFIQKYVFPGGFLPSDSALEKSVGQAGLKLTETELFGQSYALTLAEWRQRFHARWQTISLLGFDERFRRLWDYYLCYCEAGFAEGTINVGLYTIEHG | failed
MTPLVSRLSRLWAIMRKPRAAVGSGHRKQAASQEGRQKHAKNNSQAKPSACDGLARQPEEVVLQASVSSYHLFRDVAEVTAFRGSLLSWYDQEKRDLPWRRRAEDEMDLDRRAYAVWVSEVMLQQTQVATVINYYTGWMQKWPTLQDLASASLEEVNQLWAGLGYYSRGRRLQEGARKVVEELGGHMPRTAETLQQLLPGVGRYTAGAIASIAFGQATGVVDGNVARVLCRVRAIGADPSSTLVSQQLWGLAQQLVDPARPGDFNQAAMELGATVCTPQRPLCSQCPVESLCRARQRVEQEQLLASGSLSGSPDVEECAPNTGQCHLCLPPSEPWDQTLGVVNFPRKASRKPPREESSATCVLEQPGALGAQILLVQRPNSGLLAGLWEFPSVTWEPSEQLQRKALLQELQRWAGPLPATHLRHLGEVVHTFSHIKLTYQVYGLALEGQTPVTTVPPGARWLTQEEFHTAAVSTAMKKVFRVYQGQQPGTCMGSKRSQVSSPCSRKKPRMGQQVLDNFFRSHISTDAHSLNSAAQ | failed
MTPMPSSVKPVEGRSVLIEWQDGHSSLYENVYLREHCQCAECVHEWTGEKLISRERIPADIRPVSVSAVGNYALSIRFSDGHGTGVYSYELLRKICPCPLCKA | failed
MTPNEDLIEIFEDEEISPSLTAKTWPILIVDDDQDVHDVSRLALRGVRLLDYDLETLHAYSAAQARAILSSRSDIAVALLDVVMEREDAGLDLVRWIRSDPARDLLRIVLRTGQPGYAPEATVIQDYDINDYRTKSELNRGRLISILTTALRSYRQMAVIAASRDGLDKIVRASADLLASPSMAIFAEGVLTQLAGLLGTERSGIVLARRNRRPGATASMAMTGDEGFVLAAAGPLSADIGRPLSDIGDHQTAEILRRTLESRRSSFDHGSMALYIATPNGDSLAVLMEVAKTLGDTDRKLVEVFCVNMAAGFDTISLFEQISLQAFHDEATGLPNLAACQSLIDQYLQRRQPVAVTFFSLEGFSAISDTLGRVIGDRMIGLLANAFRHRLQERGEVFRVGQETLATVIGGPVDQVGPLADQLAGDFRAGLPLDSMTLPVSFSHGTSVSTSEHDTAQILVQRAGIAMQKARNIKRGGGLTYAVAMEEEIRAHIGVISKLGAGVVSEAFVAVFQPKIRLADRSCHGGEALVRWRDGDGTMIAPSLFIPAAETSGHIVDIGYSVFRQSCAMIRSLKVSQDDARIAVNLSVRQMREPDLIDKLVSIAAEEGVATTRLKLEITESIVIDDLTHTVSLLKALKDKGFLLALDDFGTGYSSLSYLRSLPIDTLKIDRSFVSGLAEQADMRKIVGLIIGLGHELGFDITAEGVETEEEARIVTEMGCFTAQGYLFSKPLSAEDFLVFARTHAGARQTSGGSLSAEGCIRARDA | failed
MTPQNTIARELLFLALLSTLWAASYTFIKIGVETIPPLTFIAARTLIAGLLLLVVIRLRGLRLPRDPATWRLFFVQACINSVLPFTLIAWAEQSIDAGLAVILNATTPIFTFLLTALVIRHETVSGRKLFGTIAGMTGVCLIIGVEALGGAGEAIWSQLAVLTAAFSYACAAIFSKNFKGLDPVMPAAGSLICGAVLLLPVSLIVDRPWTLSPSAASLTALVCLSVFSTALAFMIYFRLMQTLGSVGTTSQAYLRVPVGVAIGMVFLGEVPTSAMWVGLVCVIAGVLAMTLPSRRRPATQGG | failed
MTPQRATLTGMLAIILWSTSVGLIRSLTEALGPIGGAAMIYSTSTLCLLVFYGLPRIKTLPRIYLFAGGALFVCYEIFLSLSIGLADSRMQAMEIGMINYLWPSLTILFSLFINQQKSRFLLWPGLVISLGGIVWIMKGESDWTPELLWNNILANPLAYSLAFSAALTWALYCNITKRYGQGKSGVSLFFFIASLVLWIQYSFSAEGPISLTLPSSLELLFMGASAALAYSAWNAGIQYGNLTLLATASYFTPVLSTLLAAIWLNITPAISFWQGVAMVTAGSLLCWYATRSSTR | failed
MTPSLSGLPPIRTALIGYGFAGKTFHAPLIRAVPALCLEHVVSRDPGRVHADLPEARVSADPDEAIEAADIDLVVIASPNATHASLAERALRAGKHVVVDKPFTVTLAEARRLADLARERPGQVLSVFQNRRFDSDFLAVEAALQAGSIGPVRYFESAIERFRPQVRDRWREHDLPGSGLWFDLGPHLLDQALCLFGVPQRVHGHLRRLREGALTDDWFEVLLDYPHCQVALRASMLAANPAPRFNVHGDHGSLLKAGADIQEAQLLQGLHPGSAGWGRDPDLLQHIDGQGLRQSLVTPAGDQSRYYQALAAAIRGQSRNPVSAQQACALMALLELARRSAEEGRSLPVELRDEERQAWN | failed
MTPTPSFAAYVGAHWAAVVIYVIATVVNVYGLLFRSEPAERWSYRLISVGWMIHSVVIAYWWWVTGHGPYLSRNEVLSSDAWIALTVFMCFQRLYPRVRPASIVVFPSVFLMIALGLFFDVQIRTLPPTFSGIWLVIHIAFYKIALGTILIALACSIFLVLKKRTPFAWLQRLPDLESLDLHAYRFAGFGFIIWAIAMLAGSIWAYKSWGRFWGWDPVENWSLITWILFGIHLHLRRFFRWSGERAALFYVVCFIFSLVALFYTSHMDTSIHMEYFR | failed
MTPYRRILLIMTEAQANAALSRAMALSAASGASLHVLGIHESGVLRLPHELQEAPLHSASFMHFSTELKALLDEQSFVGARPGFEAVETSNPRDQLPACIARYAPDLVIKGCPGHSLLEQIARTSLDQALLH | failed
MTQDEWIDIPQGWSQGRTIYGGLVAGLLMHKALSVMNDESKNLLSTSITFVGPVNEGRVRLTVEILRQGKSVTTIEARLWQDQAVQTILIASFGQPRSLEHHHHHH | not failed
MTQELQTLEVEEEMMMRKFYELMSRQRLNKKMIMLVLIEIDVGSFEENGEDSKCVTWTERHKPLKGNNAAGVLPLQRLVRDGLLAYGPEVF | failed
MTQKEWPLWEVFVRSKQGLEHKHCGSLHATDAQQALHMARDVYTRRQEGVSIWVVPSTAITASAPEEKPELFDPMADKIYRHPTFYQLPDEVNHM | not failed
MTQKRKLDAASPGDPHDFAADGIERQTLRMVEQALRADRLMLAWQPVVVASEAARTVFHEGLIRVLDETGRIIPARDFMSAVETQDLGRLIDCASLEKGLATLARHPGLRLSINMSARSIGHGRWMQILQGALRADPNLGPRLILEITESSAMEVPELVLPFMDALQRAGISFALDDFGAGFTAFRYLKDFFFDIIKIDGQFIRNIHRDPDNQVLTQAMLSVGRHFDMLTVAETVETAEEAEWLRAAGVDCLQGYLFGRPCTQPAWQATGTRLIA | failed
MTQPSGLKNLLRAAAGALPVVPRTDQLPNRTVTVEELPIDPANVAAYAAVTGLRYGNQVPLTYPFALTFPSVMSLVTGFDFPFAAMGAIHTENHITQYRPIAVTDAVGVRVRAENLREHRRGLLVDLVTNVSVGNDVAWHQVTTFLHQQRTSLSGEPKPPPQKKPKLPPPAAVLRITPAKIRRYAAVGGDHNPIHTNPIAAKLFGFPTVIAHGMFTAAAVLANIEARFPDAVRYSVRFAKPVLLPATAGLYVAEGDGGWDLTLRNMAKGYPHLTATVRGL | failed
MTQQHPHLLEPELGEFLTALKNTPSRLTARTAAWLCIWTASRPGMVRLAEWKEFDLDKATWTTPAAKMKMRRDFVCPLPHQAIAALKELHCLTGRSRWLFPGVGAKNPTISENTINKVFATIGYKGRLVGHGTRHTASTLLREHGWPKEHVEAQLAHKEEGLEHHHHHH | failed
MTQQLFTLFAVFISLFLFGMAVMRAGLLTMNAEKARVGILRFVDNPLKGFFVGLLLTILLQSSSAVMIVTIGFVAAGYVTFRQSIGIILGTNVGTCFTVELIALDLHSLIVPLLLIGLIGLAIPHLITYCLGCVSFGLACIFISMNGLENLASPLAAIPAIQAFIELTNDWLIVGAGVGTLLTALIQSSTATTAIAMGFLNEEIIGIHGGIAIMLGANIGTCFTALLASIGSGRTSRLVAFAHLWLNVIGVLLFIPLIPHLSHFVMTLTTIPAIQLAHASTIFNVICSLAILPFVKPFASFIETLHGPSQ | failed
MTQQPRSTARTPASAEDPAAAAAHPPLAAPRPPAEHRVWPRTFHDRLTAPLPGLKAFARFAREGAVRPGPAGLADVPRLPCAPGPLPRVDARTVAVTWAGHASWVVRIGGLTVLTDPVWSRRILGTPPRVTPVGVPWSALPRVDAVVISHNHYDHLDAPTLRRLPRDTPVLVPAGLGRWFHRRRFTHVTELDWWEATELNGVRFDFVPAHHWSKRSLTDTCRTLWGGWVLTDPDGRRVYFAGDTGYGHWFTRIGRRYPGIDLALLPIGAYDPRWWLSDVHCDPEEAVRAAQDVGARRMAPMHWGTFVLSAEPVLEPLARVRAAWQQAGLPRERLWDLPIGASRVLE | failed
